T1: hAng-1 (human, UniProt Q15389 20-498, limits assumed)
T1 construct: Used in 'the same experiment' as hAng-2 C-His in SPR
T1 sequence (looked up): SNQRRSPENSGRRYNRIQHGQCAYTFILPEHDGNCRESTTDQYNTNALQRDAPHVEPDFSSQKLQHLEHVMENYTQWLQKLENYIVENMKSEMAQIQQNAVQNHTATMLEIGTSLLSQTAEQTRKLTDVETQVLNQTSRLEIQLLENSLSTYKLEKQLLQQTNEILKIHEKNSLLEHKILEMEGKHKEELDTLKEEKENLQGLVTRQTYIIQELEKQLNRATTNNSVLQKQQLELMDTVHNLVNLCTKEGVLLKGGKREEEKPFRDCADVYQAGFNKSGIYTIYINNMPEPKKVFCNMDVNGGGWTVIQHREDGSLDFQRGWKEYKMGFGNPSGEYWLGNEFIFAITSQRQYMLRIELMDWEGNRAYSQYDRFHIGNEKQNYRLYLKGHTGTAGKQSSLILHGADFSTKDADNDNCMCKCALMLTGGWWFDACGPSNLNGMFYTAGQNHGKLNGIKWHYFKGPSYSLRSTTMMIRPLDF

B1: SAIT-ANG-2-AB-m8D3 (antibody, V domains shown)
VH: EVQLQQSGPELVKPGDSVKMSCKASGYTFTDYYMKWVRQSHGKSLQWVGEINPKNGDTFYNQIFKGKATLTVDKSSSTAYMQLTSLTSEDSAVYYCTRENDYDVGFFDYWGQGTSVTVSS
VL: TIVMTQTPKFLLVSAGDRITITCKASQSVSNDVAWYQQKPGQSPKLLIYYASNRYPGVPDRFTGSGYGTDFTFTISTVQAEDLAVYFCQQDYTSPWTFGGGTELEIK
notes: Mouse hybridoma monoclonal antibody purified on protein G
B2: SAIT-ANG-2-AB-m1B6 (antibody, V domains shown)
VH: QIQLVQSGPELKKPGETVKISCKASGYTFTNYGMNWVKQAPGKGLKWMGWINTYTGEPTYADDFKGRFAFSLETSASTAYLQINNLKNEDTATYFCARDHDGYLMDYWGQGTSVTVSS
VL: DIQMTQTTSSLSASLGDRVTISCSTSQGISNYLNWYQQKPDGTVKLLIFYTSSLHSGVPSRFSGSGSGTDYSLTISNLEPEDIATYYCQQYSKLPYTFGGGTKLEIK
notes: Mouse hybridoma monoclonal antibody purified on protein G; also called SAIT-ANG-m2-AB-1B6
B3: SAIT-ANG-2-AB-m3E2 (antibody, V domains shown)
VH: EVQLQQSGAELVKPGASVKLSCTASGFNIKDPYIHWVKQRPEQGLEWIGRIDPANGNTKYDPKFQGKATITADTSSNTAYLQLSSLTSEDTAVYYCVRRWDGGGFDYWGQGTSVTVSS
VL: DIQMTQTTSSLSASLGDRVTISCRASQDISNYLNWYQQKPDGTVKLLIYYTSRLHSGVPSRFSGSGSGTDYSLTITNLEQEDIATYFCQQGNTLPWTFGGGTKLEIK
notes: as for B1

Target: T1, hAng-1
Test: SPR, BIAcore T100, antigen captured on chip, antibody from 100 nM in two-fold dilutions
Protocol: An anti-His antibody was immobilized to the degree of 8,000 response units (RU) on a CM5 sensor chip (GE Healthcare) using a pH 5.0 acetate solution and an amine coupling kit (GE Healthcare). Recombinant hAng-2 protein (C-His, R&D Systems) was flowed into this immobilized antibody at a concentration of 6 μg/ml to capture the antibody at 100˜200 RU. In this regard, the antibodies obtained in Reference Example 2.2.2 were serially diluted by half each time starting from 100 nM before application. […] Kd values were calculated from the measurements. The same experiment was conducted with hAng-1.

Binding result, no binding:
B1, B2, B3

Source: US20140302039A1 (SAMSUNG ELECTRONICS, published 2014)
